Earlier results as cited in article PMC5808296.
pKd: −log10 of the molar value. Read-outs that look alike come from different tables or passages of the source.

Columns and labels:
[1] = target: Aβ42 Aβ1-42 (Mus musculus) (UniProt P12023)
[2] = target: Aβ42 Aβ1-42 (Mus musculus) (UniProt P12023); remark: listed apart in the source

| Substance | pKd [1] | pKd [2] |
| --- | --- | --- |
| C-FRHMTEQ-C peptide | 9.26 |  |
| C-IPLPFYN-C peptide |  | 9.66 |
